{"source": "patent US10543284B2", "about": "“Anti-c-Met antibody and anti-c-Met antibody-cytotoxic drug conjugate and pharmaceutical use thereof” (Suzhou Suncadia Biopharmaceuticals Co., Ltd., priority 2015, dated 2020)", "molecules": {"B1": {"name": "Ab-9: humanized anti c-Met antibody: heavy chain sequence of SEQ ID NO: 23 and light chain sequence of SEQ ID NO: 26 (antibody)", "heavy": "QVTLKESGPVLVKPTETLTLTCTVSGFSLPNYGVHWVRQPPGKALEWLAVIWSGGSTNYAAAFVSRLRISKDTSKSQVVFTMNNMDPVDTATYYCARNHDNPYNYAMDYWGQGTTVTVSSASTKGPSVFPLAPCSRSTSESTAALGCLVKDYFPEPVTVSWNSGALTSGVHTFPAVLQSSGLYSLSSVVTVPSSNFGTQTYTCNVDHKPSNTKVDKTVERKCCVECPPCPAPPVAGPSVFLFPPKPKDTLMISRTPEVTCVVVDVSHEDPEVQFNWYVDGVEVHNAKTKPREEQFNSTFRVVSVLTVVHQDWLNGKEYKCKVSNKGLPAPIEKTISKTKGQPREPQVYTLPPSREEMTKNQVSLTCLVKGFYPSDIAVEWESNGQPENNYKTTPPMLDSDGSFFLYSKLTVDKSRWQQGNVFSCSVMHEALHNHYTQKSLSLSPGK", "light": "DIVLTQSPASLAVSPGQRATITCRANKSVSTSTYNYLHWYQQKPGQPPKLLIYLASNLASGVPARFSGSGSGTDFTLTINPVEANDTANYYCQHSRDLPPTFGQGTKLEIKRTVAAPSVFIFPPSDEQLKSGTASVVCLLNNFYPREAKVQWKVDNALQSGNSQESVTEQDSKDSTYSLSSTLTLSKADYEKHKVYACEVTHQGLSSPVTKSFNRGEC", "modifications": "Ab-9 heavy chain; Ab-9 light chain"}}, "key": {"[1]": {"test_system": "MKN45 cells", "experiment": "Inhibition of proliferation of MKN45 gastric cancer cells (CellTiter-Glo, 5 days)", "type": "cell-based, human", "from_the_text": "The clones above were selected and further cultured to obtain monoclones. After verification of binding activity by ELISA, monoclones were selected for cultivation, and the resulting supernatant was subjected to a cell viability assay. According to the experiment principle, anti-human c-Met antibodies of the invention are able to inhibit phosphorylation of c-Met expressed on the surface of human gastric cancer cell line MKN45, thereby inhibiting the proliferation of MNK45 cells.\nHuman gastric cancer cells (MKN45, JCRB, JCRB0254, P11) were added to a 96-well cell culture plate (costar, #3799) at 1×10^5 cells/mL and 50 μl/well. The medium was RPMI1640 medium: (GIBCO, cat #11835)+10% FBS (GIBCO-10099141). Anti-human c-Met antibodies to be tested were added at 50 μl/well, and the plate was cultured for 5 days in incubator at 37′C (Manufacture: SANYO; Equipment No. TINC035). CellTiter-Glo® Luminescent Cell Viability Assay (Promega, G7573) was used, and the proliferation of cells was detected according to the instructions. The plate was read by a PerkinElmer plate reader, TREA001-RDA-IBA100. The following formula was used to calculate the percentage proliferation of cells: % proliferation of cells=(1−cell reads in experimental group/cell reads in untreated group)×100%."}, "[2]": {"target": "T1, cell line MKN45, which overexpresses c-Met (Homo sapiens, UniProt P08581)", "T1 construct": "host or cells: MKN45", "T1 sequence (P08581 25-1390)": "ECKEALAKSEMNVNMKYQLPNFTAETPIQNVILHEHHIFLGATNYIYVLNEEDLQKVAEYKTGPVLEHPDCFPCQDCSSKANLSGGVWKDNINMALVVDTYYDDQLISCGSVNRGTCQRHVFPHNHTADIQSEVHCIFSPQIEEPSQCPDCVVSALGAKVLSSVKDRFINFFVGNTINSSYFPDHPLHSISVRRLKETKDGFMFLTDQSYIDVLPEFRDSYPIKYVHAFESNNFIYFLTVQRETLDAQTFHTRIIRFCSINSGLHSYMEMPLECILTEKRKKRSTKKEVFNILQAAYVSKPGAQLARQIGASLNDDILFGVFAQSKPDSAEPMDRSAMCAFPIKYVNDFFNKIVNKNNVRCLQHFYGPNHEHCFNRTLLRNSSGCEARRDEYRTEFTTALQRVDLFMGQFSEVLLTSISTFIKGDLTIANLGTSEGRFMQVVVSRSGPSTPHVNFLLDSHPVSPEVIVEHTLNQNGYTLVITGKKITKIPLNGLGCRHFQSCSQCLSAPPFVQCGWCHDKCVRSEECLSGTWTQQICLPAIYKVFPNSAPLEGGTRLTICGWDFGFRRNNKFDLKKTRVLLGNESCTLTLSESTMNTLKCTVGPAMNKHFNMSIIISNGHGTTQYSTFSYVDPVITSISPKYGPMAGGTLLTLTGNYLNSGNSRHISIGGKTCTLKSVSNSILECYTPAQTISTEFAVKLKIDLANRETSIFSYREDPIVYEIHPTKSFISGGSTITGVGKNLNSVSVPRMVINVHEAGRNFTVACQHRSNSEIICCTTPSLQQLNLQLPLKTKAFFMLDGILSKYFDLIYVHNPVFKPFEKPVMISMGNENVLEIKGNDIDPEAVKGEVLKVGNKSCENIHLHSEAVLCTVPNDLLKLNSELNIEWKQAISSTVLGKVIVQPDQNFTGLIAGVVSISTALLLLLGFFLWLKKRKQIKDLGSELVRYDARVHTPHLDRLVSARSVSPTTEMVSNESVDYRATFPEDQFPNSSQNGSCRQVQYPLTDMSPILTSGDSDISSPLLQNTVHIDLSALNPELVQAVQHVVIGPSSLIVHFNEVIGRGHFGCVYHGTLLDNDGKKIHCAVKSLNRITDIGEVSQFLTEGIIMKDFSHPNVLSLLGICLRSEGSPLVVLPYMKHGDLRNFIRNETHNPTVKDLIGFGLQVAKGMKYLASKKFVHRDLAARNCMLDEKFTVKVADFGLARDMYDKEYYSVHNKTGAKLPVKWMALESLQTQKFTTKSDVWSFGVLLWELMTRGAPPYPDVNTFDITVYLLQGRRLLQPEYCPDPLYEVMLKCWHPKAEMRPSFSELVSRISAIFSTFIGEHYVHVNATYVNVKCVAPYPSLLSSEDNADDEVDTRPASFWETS", "experiment": "FACS binding activity with MKN45 cells", "conditions": "Table 6", "experimental": "A FACS method was used to detect the binding activity of c-Met humanized antibodies with the cell line MKN45, which overexpresses c-Met. […] The plate was incubated for 1 hour at 4° C. FACS buffer (PBS comprising 2.5% (v/v) FBS (Hyclone, Cat: SH30256.01B)) was added. The plate was centrifuged under 4° C. at 1300 rmp for 4 minutes, and the supernatant was discarded. This procedure was repeated three times. 100 μl of secondary antibodies (Fluorescence labeled goat-anti-mouse secondary antibodies with 1:200 dilution, Biolegend, Cat No. 405307; Fluorescence labeled anti-human secondary antibody with 1:30 dilution, Biolegend, Cat No. 409304) were added to each well, and the plate was incubated for 1 hour at 4° C. FACS buffer was added, the plate was centrifuged under 4° C. at 1300 rpm for 4 minutes, the supernatants were discarded; and this procedure was repeated three times. 200 μl FACS buffer was added to resuspend the cells, and the samples were prepared and detected by flow cytometry (BD FACS Array)."}, "[3]": {"test_system": "human gastric cancer MKN45 cell model", "experiment": "MKN45 subcutaneous xenograft in BALB/c nude mice (Example 10)", "type": "in vivo", "conditions": "5 mg/kg antibody, terminated at day 25", "experimental": "The human gastric cancer MKN45 cell model, obtained by subcutaneous xenograft into BALB/c nude mice, was used to evaluate the antitumor activity of the antibodies.\nMKN45 cells were cultured in a monolayer in RPMI-1640 medium (10%/FBS) at 37° C. in 5% CO2. The cells were counted and collected during the logarithmic phase. The cells were resuspended in PBS to an appropriate concentration, and 0.1 ml 3×10^6 cells were subcutaneously injected into the right wing of mice (BALB/c nude mouse, female, 10-week old, 22-28 g, from Shanghai SLAC experimental animal ltd. Licence No. 2007000548777; Environment: SPF grade). When the tumors' average volume reached 114 mm^3, the tumors' weights and volumes were measured, and mice were then separated into groups for treatment. The control group was treated with PBS, and the antibody therapy group was treated with 5 mg/kg antibody of the invention, and the frequency was once a week and twice per time. The tumors' volumes and weights were measured twice a week, and the experiment was terminated at day 25. The formula for calculating tumor size was: tumor volume (mm^3)=0.5×(tumor length×tumor diameter^2)."}, "[4]": {"test_system": "MKN45 cells expressing c-Met", "experiment": "Endocytosis of anti c-Met antibody in MKN45 cells (FACS)", "type": "cell-based, human", "conditions": "10 μg/ml", "experimental": "Antibodies of the invention could bind to human c-Met, have very good in vitro activity, and inhibit tumor activity in vivo. […] In order to detect whether the antibody could be taken up into the cell along with human c-Met once bound to human c-Met, the human gastric cancer cell line MKN45 (JCRB, Cat No.: JCRB0254) expressing c-Met was used for evaluation. […] The plate was incubated at 4° C. for 1 hour. FACS buffer (phosphate buffer solution including 2.5% fetal bovine serum; Hyclone, Cat: SH30256.01B) was added, and the plate was centrifuged at 4° C., 1300 rpm for 4 minutes. The supernatant was discarded, and this procedure was repeated three times. 100 μl secondary antibody solution (Fluorescence labeled goat anti mouse secondary antibodies at 1:200 dilution, Biolegend, Cat No. 405307; Fluorescence labeled anti-human secondary antibody at 1:30 dilution, Biolegend, Cat No. 409304) was added into each well, and the plate was incubated at 4° C. for 1 hour. FACS buffer was added and the plate was centrifuged at 4° C., 1300 rpm for 4 minutes. The supernatant was discarded, and this procedure was repeated three times. […] FACS buffer was added and the plate was centrifuged at 4° C., 1300 rpm for 4 minutes. The supernatant was discarded, and this procedure was repeated three times. 200 μl Stripping buffer (0.05 M glycine, pH 3.0; 0.1 M NaCl, mixed in accordance with 1:1 (v/v)) was added to each well. The cells were resuspended and were incubated for 7 minutes at room temperature. The cells were centrifuged at room temperature at 1300 rpm for 4 minutes, and the supernatant was discarded. 200 μl neutralizing wash buffer (0.15M trihydroxymethyl aminomethane, pH 7.4) was added to each well, the cells were resuspended and centrifuged at room temperature at 1300 rpm for 4 minutes, and the supernatant was discarded. 200 μl FACS buffer was added, and the cells were resuspended. Samples were prepared and detected by flow cytometry (BD FACS Calibur). Endocytosis of c-Met antibody %=(intensity of fluorescence at various time points−average intensity of fluorescence at time 0)/average intensity of fluorescence at time 0."}}}
{"molecule": "B1", "values": [{"measurement": "Activity of inhibition of MKN45 cell proliferation Maximum inhibition rate (%)", "setting": "[1]", "result": 33, "unit": "%"}, {"measurement": "EC50", "setting": "[2]", "result": 1.6, "unit": "nM"}, {"measurement": "inhibition rate", "setting": "[3]", "result": 56, "unit": "%"}, {"measurement": "endocytosis % 0 h", "setting": "[4]; 0 h", "result": 0, "unit": "%"}, {"measurement": "endocytosis % 0.5 h", "setting": "[4]; 0.5 h", "result": 26, "unit": "%"}, {"measurement": "endocytosis % 1 h", "setting": "[4]; 1 h", "result": 32, "unit": "%"}, {"measurement": "endocytosis % 2 h", "setting": "[4]; 2 h", "result": 32, "unit": "%"}, {"measurement": "endocytosis % 4 h", "setting": "[4]; 4 h", "result": 31, "unit": "%"}]}
